# Measured values from patent US12441790B2, “Binding proteins to the human thrombin receptor, PAR4” (MONASH UNIVERSITY, priority 2017, dated 2025).
# B1: MoB5AR C3: parent hybridoma clone (supernatant) from which 5A.RC3.F10b.H4b was sub-cloned (antibody, V domains shown)
# VH: QVQLVESGGGVVQPGRSLRLSCAASGFTLSNYGMHWVRQAPGKGLEWVSVIWYDGSNKHYADSVKGRFTISRDNSKNTLYLQMNSLRAEDTAVYYCARESIVEVLPPFDYWGQGTLVTVSS
# VL: KIVLTQSPGTLSLSPGERVTLSCRASQRVRNNYLAWFQQKPGQAPRLFIYGASSRATGIPDRFSGSGSGTDFIFTISRLEPEDFAVYYCQQYGNSYTFGQGTKLEIK
# modifications: VH of 5A.RC3; VL of 5A.RC3
# notes: parent hybridoma clone (supernatant) from which 5A.RC3.F10b.H4b was sub-cloned
# B2: MoB5G G1: hybridoma supernatant clone, second screening; likely parent of 5G.RG1 (antibody, V domains shown)
# VH: QVQLVESGGGVVQPGRSLRLSCVASGFTLSSYGMHWVRQAPGKGLEWVAVIWYDGSSKYYTDSVKGRFDISRDNSKNTLYLQMNILRAEDTAVYYCARETILIGGVPFDYWGQGTLVTVSS
# VL: EIVLTQSPGTLSLSPGERATLSCGASQSIRSNYLAWYQQKPGQAPRLLIYGASSRATGTPDRFSGSGSGTDFTLTITRLEPEDFALYYCQQYGRSYTFGQGTKLEIK
# B3: MoB5F E6: hybridoma supernatant clone, second screening; likely parent of 5F.RE6 (antibody, V domains shown)
# VH: QVQLAESGGGVVQPGRSLRVSCAASGFTFSSYGMHWVRQAPGKGLEWVAVIWYDGTKKYYADSLKGRFTISRDNSKYTLYLQMNSLRADDTALYFCARKGARGITGLDYWGQGTLVTVSS
# VL: DIQMTQSPSSLSASAGDRITITCRASQSISNYLNWYQQKPGKAPKLLIYAASSLQSGVPSRFSGSGSGTDFTLTISSLQPEDFASYYCRQNYNTPLTFGGGTKVEIK
# What was measured:
# PAR1 = molecular target: T1, PAR1 (Homo sapiens, UniProt P25116); conditions: in combination with single or dual antiplatelet therapy; cited from earlier work
# T1 construct: host or cells: patients in clinical trials
# T1 sequence (P25116 22-425): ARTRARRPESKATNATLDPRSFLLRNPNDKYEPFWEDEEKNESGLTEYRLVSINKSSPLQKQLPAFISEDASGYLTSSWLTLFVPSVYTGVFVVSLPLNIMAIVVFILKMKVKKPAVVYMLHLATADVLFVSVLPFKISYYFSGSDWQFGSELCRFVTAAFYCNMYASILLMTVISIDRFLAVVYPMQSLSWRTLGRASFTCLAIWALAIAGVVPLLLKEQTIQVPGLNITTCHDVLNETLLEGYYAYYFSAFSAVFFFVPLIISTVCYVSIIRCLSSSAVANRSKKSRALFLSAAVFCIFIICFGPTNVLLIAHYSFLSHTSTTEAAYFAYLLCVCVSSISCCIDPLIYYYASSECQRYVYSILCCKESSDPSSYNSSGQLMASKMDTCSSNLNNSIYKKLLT
# native PAR4 peptide = molecular target: T2, native PAR4 peptide (Homo sapiens, UniProt Q96RI0); test: ELISA screening of hybridoma supernatants, native vs KLH-linked PAR4 peptide; type: binding; conditions: first screening; clone; hybridoma supernatant
# T2 construct: host or cells: synthetic peptide
# Protocol: (§1) 96-well ELISA plates were coated with 50 μl of antigen diluted to a concentration of 4 μg/ml in coating buffer (0.1M Sodium Hydrogen Carbonate (NaHCO3) (Merck, #1.06329.0500)). Plates were incubated overnight at 4° C.
# (§2) Wells were then washed with an automated plate washer (300 μl 1×PBS, 3 times). The wells were blocked with 200 μl of blocking buffer (3% BSA/1×PBS (BSA: (Sigma, #1001647742)) for 1 hour at room temperature followed by washing as above.
# (§3) 50 μl of undiluted hybridoma cell culture supernatant was added into appropriate wells and incubated at room temperature for 1 hour followed by washing as above. […] Wells were washed as above. A set of substrate tablets (1×silver, 1×gold) into 20 ml of ddH20 by shaking vigorously on the thermomixer for 6 mins at room temperature. 50 μl of substrate ([…]™ p-Nitrophenyl phosphate Tablets (Sigma-Aldrich, N2770-50SET)) was added into each well and incubated for 20-25 mins at room temperature. 50 μl of STOP solution (2M Sodium Hydroxide, Solid (NaOH) (Merck, Cas #1310-73-2)) was added into each well to stop the reaction. Absorbance was read at 405 nm immediately after adding STOP solution with the ELISA reader, using the ‘RdrOle4’ software.
# [1] = molecular target: T3, human PAR4 containing an N-terminal FLAG tag (Homo sapiens, UniProt Q96RI0); test: PAR4 thrombin cleavage assay, FLAG-tagged PAR4 on HEK293 cells, flow cytometry; type: cell-based
# T3 construct: expressed in transfected cells; host or cells: HEK293 / HEK293T
# T3 sequence (Q96RI0 18-385): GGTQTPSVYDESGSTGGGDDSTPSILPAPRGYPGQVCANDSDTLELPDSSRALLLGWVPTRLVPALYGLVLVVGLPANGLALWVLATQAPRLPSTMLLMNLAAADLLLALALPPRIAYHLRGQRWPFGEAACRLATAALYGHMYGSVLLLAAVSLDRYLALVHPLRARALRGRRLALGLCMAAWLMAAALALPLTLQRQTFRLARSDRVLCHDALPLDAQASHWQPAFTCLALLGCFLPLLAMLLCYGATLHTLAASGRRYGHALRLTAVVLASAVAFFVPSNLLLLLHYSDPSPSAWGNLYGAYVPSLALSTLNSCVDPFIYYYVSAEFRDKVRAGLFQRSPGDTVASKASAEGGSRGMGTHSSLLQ
# Protocol: 1×10^6 HEK293T cells (in Dulbecco's modified eagle's medium+10% foetal calf serum) were seeded onto 12-well plates 24 hours before transfection. When confluent, they were transiently transfected with 1 μg of DNA from one of the PAR4 variants (expression vectors pBJ-FLAG-PAR4-120A-296F or pBJ-FLAG-PAR4-120T-296F; Edelstein et al (2014) Blood 124(23):3450-8) plus 4 μL of Lipofectamine 2000, as per manufacturer's instructions. Forty-eight hours after transfection, cells were harvested and washed twice with PBS, then resuspended to a count of 1×10^6/mL. Cells (50 μL assays/0.5×10^5 cells per condition) were then pre-treated with either 1, 10 or 100 μg/mL of 5RC3 or sub-clone 5A.RC3.F10b.H4b or 100 μg/mL matched Isotype control (mouse IgG1) for 15 minutes at 37° C. Cells were then stimulated with 2 U/mL of thrombin for 10 minutes. The reaction was stopped by the addition of 4 U/mL hirudin. Cells were then washed once and resuspended with PBS containing a 1:200 dilution of FITC anti-FLAG antibody (Sigma, clone M2) and incubated for 1 hour at room temperature in the dark. Cells were then fixed with 1% paraformaldehyde (final concentration) and read on a FACSCalibur flow cytometer to determine % of FL1/FITC-Positive events. Data were normalised against the resting sample (100%, no thrombin treatment).
# Monoclonal antibody hybridoma supernatants (MoB5ARC3, MoB5BRB4, MoB5BRC6, MoB5BRH3 and MoB5CRC4) were screened for their ability to […] intact PAR4 present on the surface of HEK293 cells transfected with human PAR4 containing an N-terminal FLAG tag.
# […] Cleavage of PAR4 by thrombin was measured by loss of FLAG tag from the PAR4 expression HEK293T cells using flow cytometry.
# PAR2 = molecular target: T4, PAR2 (Homo sapiens, UniProt P55085); test: ELISA binding ratio to PAR2; conditions: second screening
# T4 construct: host or cells: synthetic peptide
# T4 sequence (P55085 with tags, fused parts or gaps limits assumed): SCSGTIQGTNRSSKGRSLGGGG
# Protocol: as §1, §2, §3
# human platelets = test: Functional screen of hybridoma supernatants by platelet aggregation assay; type: cell-based; conditions: aggregation as % of control
# Protocol: Platelet aggregation was measured by light transmission aggregometry in a 96-well plate format. Human isolated platelets (2×10^8/ml) were pre-treated for 10 mins at 37° C. with dimethylsulfoxide (DMSO) (1% v/v), the PAR1 antagonist vorapaxar (90 nM), the anti-PAR4 antibody 5RC3 (20-100 μg/ml), or a combination of vorapaxar and 5RC3. Platelets were treated with one of thrombin (0.1 U/ml) and aggregation was analysed at 37° C. in a FLUOstar OPTIMA plate reader (BMG Labtech) using a 595 nm excitation filter, for a period of 50 min (10 read cycles with 5 min double orbital shake period between each read). Optical density was normalised against the blank (maximum) and unstimulated platelets (minimum) and expressed as % maximum.
# Thrombin-induced platelet aggregation in the presence of a PAR1 antagonist (i.e. PAR4-dependent aggregation) is shown for 30 monoclonal antibody supernatants binding to human platelets. Antibody supernatant was mixed with human platelets (2×10^8 cells) at a 1:1 ratio.
molecule,measurement,setting,value
CCOC(=O)N[C@@H]1CC[C@@H]2[C@@H](C1)C[C@H]1C(=O)O[C@H](C)[C@H]1[C@H]2/C=C/c1ccc(-c2cccc(F)c2)cn1 [vorapaxar],intracranial bleeding,PAR1,significantly increased rates of intracranial bleeding
B1,Fold binding native vs KLH-linked PAR4 peptide,native PAR4 peptide,19.9
same,Functional screen on hybridoma supernatants that exhibited binding,[1]; % of uncleaved PAR4 peptide expressed on HEK293 cells,Yes (Hybridoma supernatants that demonstrated greater than 70% of uncleaved PAR4 were considered positive)
same,blocked thrombin-induced cleavage of PAR4,"[1]; initial screen of hybridoma supernatants, thrombin 2 U/ml for 10 mins",at least 90%
same,block of thrombin-induced cleavage of PAR4,"[1]; initial screen, thrombin 2 U/ml for 10 mins",almost completely blocked thrombin-induced cleavage of PAR4
B2,Binding to PAR2 ratio,PAR2,1.0
same,Functional screen on hybridoma supernatants,human platelets,Yes (+++) (aggregation <25% of control)
B3,Binding to PAR2 ratio,PAR2,1.3
same,Functional screen on hybridoma supernatants,human platelets,Yes (+) (aggregation between 50-80% of control)
